1 substance from publication PMC6510601 can be followed below.

The target of the assay is hepatitis B virus (HBV) truncated core protein Cp149 dimer (hepatitis B virus). As to the kind of experiment: resistive-pulse sensing.

Substance “hepatitis B virus (HBV) truncated core protein Cp149 dimer (domain or fragment)” returned a stoichiometry N of 90 dimers.
